Data from PMC3432753.

Target: Recombinant human endostatin (human) (UniProt P39060)
Assay: SPR

Chain of UniProt P39060 (P39060 1572-1754): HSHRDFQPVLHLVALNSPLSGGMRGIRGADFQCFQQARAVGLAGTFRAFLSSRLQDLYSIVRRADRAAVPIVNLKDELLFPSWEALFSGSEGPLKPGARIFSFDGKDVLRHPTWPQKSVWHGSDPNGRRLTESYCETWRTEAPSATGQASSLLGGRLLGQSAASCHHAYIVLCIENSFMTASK

α3β1 integrin (Millipore) (from UniProt P26006 33-1051; P05556 21-728) (complex)
Kd: 9 nM
